The values below come from patent US20200325237A1 (AVIDITY BIOSCIENCES, published 2020).

A word on the koff: it is the rate constant with which the complex falls apart. A lower koff goes with slow dissociation. As a reminder, the kon is a measure of how fast the partners come together. A higher kon goes with fast association.

Assay [1] has as its target T1, hTfR (human transferrin receptor, source and construct not stated) (human, UniProt P02786 89-760, limits assumed). In words: SPR (BioRad ProteOn XPR36), mAb captured on Protein A, hTfR as analyte, 25 C; 13E4_WT 2nd run. On the procedure:
The binding kinetics of nine exemplary humanized anti-TfR antibodies and the parent chimeric antibody were characterized. Studies were run on a BioRad ProteOn XPR36 optical biosensor using a GLM sensor chip coated with Protein A for mAb capture. Running buffer included 10 mM EPES, 150 mM NaCl, pH 7.4 with 0.05 tween-20 with 0.2 mg/ml BSA. Data were collected at 25 degrees C. All mAbs were diluted into running buffer to 2 ug/ml based on the stock concentration provided. Each was then captured for 40 seconds over a Protein A surface.
hTfR (100 ug) was dissolved into […] of water to yield a 4.3 uM stock concentration. hTfR was dilted to 43 nM as the highest concentration and tested in a 3 fold dilution series. hTfR was injected at 200 ul/min for 2 minutes followed by a one-hour dissociation phase.

Assay [2] addresses T1, hTfR (human transferrin receptor, …). As to the kind of experiment: SPR (BioRad ProteOn XPR36), mAb captured on Protein A, hTfR as analyte, 25 C. The essentials: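 Antibodies at 2 ug/ml were captured on a Protein A GLM chip for 40 s. hTfR was injected as analyte from 43 nM in a 3-fold series, 2 min association and 1 h dissociation. Run at 25 degrees C in HEPES/150 mM NaCl pH 7.4 with tween-20 and 0.2 mg/ml BSA.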

For assay [3], the target named is T2, TfR2 (transferrin receptor 2) (UniProt Q9UP52 105-801, limits assumed).
T2 sequence (looked up): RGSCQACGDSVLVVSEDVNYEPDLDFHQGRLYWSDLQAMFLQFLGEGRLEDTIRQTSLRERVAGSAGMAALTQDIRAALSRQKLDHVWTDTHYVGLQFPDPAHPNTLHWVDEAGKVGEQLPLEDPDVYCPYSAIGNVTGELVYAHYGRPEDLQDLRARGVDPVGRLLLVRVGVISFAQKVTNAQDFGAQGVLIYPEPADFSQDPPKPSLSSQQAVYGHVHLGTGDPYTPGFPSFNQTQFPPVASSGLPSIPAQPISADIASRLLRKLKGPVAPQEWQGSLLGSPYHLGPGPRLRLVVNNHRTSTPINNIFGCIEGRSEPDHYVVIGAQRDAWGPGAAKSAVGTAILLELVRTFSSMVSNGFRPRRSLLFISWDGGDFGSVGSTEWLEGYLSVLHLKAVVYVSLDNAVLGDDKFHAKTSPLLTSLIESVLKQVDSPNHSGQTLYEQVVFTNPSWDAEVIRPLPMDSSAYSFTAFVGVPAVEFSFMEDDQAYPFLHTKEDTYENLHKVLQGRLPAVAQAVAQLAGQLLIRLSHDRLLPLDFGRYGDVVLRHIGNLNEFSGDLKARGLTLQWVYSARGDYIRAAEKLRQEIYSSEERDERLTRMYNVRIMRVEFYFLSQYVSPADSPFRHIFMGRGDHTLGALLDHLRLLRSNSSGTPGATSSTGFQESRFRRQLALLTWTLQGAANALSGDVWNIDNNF
As to the kind of experiment: A450 plate assay on TfR2 (method not described in the text).

“And” between values parts separate entries of the source, which are not always exact repeats. Identical values can stand only once.

T1 sequence (P02786 89-760 limits assumed): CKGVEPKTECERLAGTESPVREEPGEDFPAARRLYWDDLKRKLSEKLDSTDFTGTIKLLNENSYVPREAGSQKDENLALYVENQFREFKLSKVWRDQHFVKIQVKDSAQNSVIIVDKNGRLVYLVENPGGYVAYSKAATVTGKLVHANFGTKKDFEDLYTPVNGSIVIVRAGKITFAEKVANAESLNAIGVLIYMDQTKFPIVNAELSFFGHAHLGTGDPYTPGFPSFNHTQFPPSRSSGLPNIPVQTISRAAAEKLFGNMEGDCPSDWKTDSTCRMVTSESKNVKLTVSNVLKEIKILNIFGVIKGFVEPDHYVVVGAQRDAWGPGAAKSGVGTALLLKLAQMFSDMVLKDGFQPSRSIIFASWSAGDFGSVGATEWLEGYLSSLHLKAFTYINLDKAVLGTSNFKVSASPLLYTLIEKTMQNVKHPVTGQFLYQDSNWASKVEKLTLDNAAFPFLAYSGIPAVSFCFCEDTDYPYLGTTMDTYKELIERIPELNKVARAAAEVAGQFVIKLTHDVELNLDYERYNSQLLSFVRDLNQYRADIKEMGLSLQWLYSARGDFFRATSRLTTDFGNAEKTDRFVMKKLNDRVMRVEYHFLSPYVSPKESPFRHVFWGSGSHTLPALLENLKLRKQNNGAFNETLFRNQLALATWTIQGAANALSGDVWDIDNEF

B1: 13E4_WT (parent chimeric anti-TfR antibody) (antibody, V domains shown)
VH: QVQLQQPGAELVKPGASVKLSCKASGYTFTNYWMHWVKQRPGQGLEWIGEINPINGRSNYGERFKTKATLTVDKSSSTAYMQLSSLTSEDSAVYYCARGTRAMHYWGQGTSVTVSS
VL: DIQMTQSPASLSVSVGETVTITCRTSENIYNNLAWYQQKQGKSPQLLVYAATNLADGVPSRFSGSGSGTQYSLKINSLQSEDFGNYYCQHFWGTPLTFGAGTKLELK
notes: also called 13E4_WT 1st; 13E4_WT 2nd
In assay [1], B1 showed a koff of 1.5e-06 s⁻¹. In addition, the kon in assay [2] was 1.06e+06 M⁻¹ s⁻¹ and 903000 M⁻¹ s⁻¹ and 840000 M⁻¹ s⁻¹. Besides, the binding result in assay [3] is on record as “no binding (tested: 1000 nM)”.
